Experiments:
Test in all cases: ELISA, plate coated with OVA-peptide conjugate, adjuvant-only control egg antibody, dilution not stated
[1] = target: IL-10 Peptide #4 (SEQ ID NO: 5) conjugated to hen ovalbumin (Chicken, quail, turkey; hen) (UniProt P01012)
[2] = target: IL-10 Peptide #3 (SEQ ID NO: 4) conjugated to hen ovalbumin (Chicken, quail, turkey; hen) (UniProt P01012)
[3] = target: IL-10 Peptide #1 (SEQ ID NO: 1) conjugated to hen ovalbumin (Chicken, quail, turkey; hen) (UniProt P01012)

optical density [1]: 0.6 OD at 450 nm | optical density [2]: 0.499 OD at 450 nm | optical density [3]: 0.562 OD at 450 nm
Substance: adjuvant only injected control egg antibody

— patent US20150037277A1
